Reference: PMC8575140 (bioRxiv, 2021)

Target: SARS-CoV-2 receptor-binding domain (SARS-CoV-2, UniProt P0DTC2)

B1: NCI-CoV-1B5 VHH (VHH)
VHH: DVQLVESGGGSVQAGGSLRLSCTGSRYTYSTYCMGWFRQAPGKEEEAVAIINSGGGEPYYGDSVKGRFTISQDRAKNTVYLQMDGLQPDDTAIYYCVAADSHNSRCYLGRSYVNYWGQGTQVTVSS
**Q.** Which IC50 does the source give for B1 here?
**A.** The IC50 was 3.2 nM.
